pKd: −log10 of the molar value.
Molecular target: Thermus thermophilus SoxB (Thermus thermophilus) (UniProt Q72IT0)
Assay: ITC; SoxB (50 μM) in the cell, SoxYZ as the titrant; 25°C; 30 mM Tris/HCl pH 8.0, 200 mM NaCl; two replicate experiments fitted together to a hetero-association model (A + B ↔ AB)

Sequence of UniProt Q72IT0 (Q72IT0 entry or part of it): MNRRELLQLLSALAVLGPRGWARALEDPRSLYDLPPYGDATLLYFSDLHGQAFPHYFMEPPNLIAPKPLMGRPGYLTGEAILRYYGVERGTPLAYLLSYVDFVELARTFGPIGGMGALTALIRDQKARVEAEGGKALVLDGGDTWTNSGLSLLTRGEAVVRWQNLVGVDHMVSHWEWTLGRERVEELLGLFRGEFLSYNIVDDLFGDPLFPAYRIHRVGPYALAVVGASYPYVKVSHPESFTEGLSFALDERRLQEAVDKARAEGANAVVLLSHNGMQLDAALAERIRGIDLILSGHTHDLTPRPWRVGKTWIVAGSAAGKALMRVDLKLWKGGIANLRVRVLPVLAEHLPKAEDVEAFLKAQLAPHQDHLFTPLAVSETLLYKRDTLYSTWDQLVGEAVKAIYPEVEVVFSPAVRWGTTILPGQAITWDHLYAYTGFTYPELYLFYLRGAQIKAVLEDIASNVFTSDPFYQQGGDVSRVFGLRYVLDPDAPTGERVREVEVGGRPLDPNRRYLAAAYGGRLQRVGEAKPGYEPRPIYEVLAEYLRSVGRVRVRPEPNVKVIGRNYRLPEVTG

Thermus thermophilus SoxYZ-S-sulfonate (from UniProt Q72IS6 1-152; Q72IS7 1-108) (complex)
pKd: 4.52 | dH: -2 kcal/mol

Thermus thermophilus SoxY_(C151E)Z variant (from UniProt Q72IS6 1-152; Q72IS7 1-108) (complex)
pKd: 5.00 | dH: -5 kcal/mol

— paper PMC5336275
